Laboratory results from PMC4316190, “Crystal structure of UbiX, an aromatic acid decarboxylase from the psychrophilic bacterium Colwellia psychrerythraea that undergoes FMN-induced conformational changes” (Scientific Reports, 2015).

Key:
CpsUbiX = target: T1, CpsUbiX (Colwellia psychrerythraea, UniProt Q489U8); experiment: X-ray crystal structure, […] Å; type: binding; settings: co-purified from E. coli; crystals at pH 5.8; site at the interface of three subunits
T1 construct: gene ubiX; full length, residues 1-206, pET-28a(+) NdeI/XhoI, E. coli BL21(DE3), His-tag cleaved with thrombin, dodecamer; FMN site formed by three neighbouring subunits

[1] = target: the molecule itself; experiment: crystal structure; wild type CpsUbiX with bound FMN; space group C222(1), 6 monomers in the asymmetric unit, dodecamer generated by crystallographic symmetry; 200 mM NaCl, 100 mM potassium/sodium phosphate pH 5.8, 11% PEG-8000; 1.9 Å
[2] = target: the molecule itself; experiment: crystal structure; V47S mutant CpsUbiX without FMN; space group P23, one molecule in the asymmetric unit, dodecamer generated by crystallographic symmetry; 0.1 M tri-sodium citrate pH 5.4, 0.5 M ammonium sulfate, 1.2 M lithium sulfate, 293 K; 1.76 Å

Cc1cc2nc3c(=O)[nH]c(=O)nc-3n(C[C@H](O)[C@H](O)[C@H](O)COP(=O)(O)O)c2cc1C [FMN]
X-ray crystal structure, 1.9 Å (CpsUbiX): FMN-bound (wild type) and FMN-free (V47S mutant) CpsUbiXs were deposited in the Protein Data Bank

B1: Colwellia psychrerythraea 34H UbiX protein (CpsUbiX), wild type, FMN-bound form (enzyme, UniProt Q489U8 1-206, looked up)
chain: MNNDFNGKITLAITGASGASYAMRLIECLIAANYQLYILCSSAGRIVLDTEVGVKIPSSPDAASKFLTEKYQAKDQQITVFGKEQWFSPVASGSSAPKQMVVCPCSTGTMAAICHGMSDNLIERAADVVIKERGQLILMVRETPFSTLHLQNMLSLSQQGVTIMPASPGFYHKVETIEDLIDFMVGRVLDHLGIEQDIMPRWGYNI
notes: UbiX (3-octaprenyl-4-hydroxybenzoate carboxylase) of Colwellia psychrerythraea strain 34H (ATCC BAA-681), UniProt Q489U8, full-length gene, residues 1-206; Cloned between the NdeI and XhoI sites of pET-28a(+); the His-tag was cleaved with thrombin, so a few vector residues probably remain at the N-terminus (surmised); also called 3-octaprenyl-4-hydroxybenzoate carboxylase; wild type CpsUbiX; …
stoichiometry N [1]: 12

B2: V47S mutant CpsUbiX (FMN-free form) (enzyme, Colwellia psychrerythraea 34H, UniProt Q489U8 1-206, looked up)
chain: MNNDFNGKITLAITGASGASYAMRLIECLIAANYQLYILCSSAGRISLDTEVGVKIPSSPDAASKFLTEKYQAKDQQITVFGKEQWFSPVASGSSAPKQMVVCPCSTGTMAAICHGMSDNLIERAADVVIKERGQLILMVRETPFSTLHLQNMLSLSQQGVTIMPASPGFYHKVETIEDLIDFMVGRVLDHLGIEQDIMPRWGYNI
notes: UbiX (3-octaprenyl-4-hydroxybenzoate carboxylase) of Colwellia psychrerythraea strain 34H, UniProt Q489U8, residues 1-206, with V47S; it was expressed and purified as the wild type; also called V47S CpsUbiX; FMN-free CpsUbiX; source: E. coli BL21 (DE3), purified by methods similar to the wild type (Ni-NTA, thrombin cleavage, Superdex-200 SEC); copies: 12
stoichiometry N [2]: 12
